From the supplement of paper PMC10567573

B1: EMD (parent)
chain: YQSKGYNDDYYEESYFTTRTYGEP
B2: MTMR15 (parent)
chain: YVKAKKSIDKDEEFAGSSPQSSKS
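Further: lentivirally expressed fusions sorted by FACS into six bins by GFP to DsRed ratio, PSI derived from sequencing read proportions per bin multiplied by bin number.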

Variants of: B1
Assay: protein stability index of a GFP-peptide fusion (GPS, HEK-293T) (PSI 1-6); higher = more stable
Details: c terminus: a fixed tail appended
YQSKGYNDDYYEESYFTTRTEGEP [Y21E] gave a protein stability index of 3.18.
With YQSKGYNDDYYEESYFTTRTVGEP [Y21V] the protein stability index was 2.93.
Variant YQSKGYNDDYYEESYFTTRTCGEP [Y21C] has a protein stability index of 2.81.
For YQSKGYNNDYYEESYFTTRTYGEP [D8N], the protein stability index was 1.82.
YQSKGYNYDYYEESYFTTRTYGEP [D8Y] showed a protein stability index of 1.72.
Work on YQSKGYNHDYYEESYFTTRTYGEP [D8H] yielded a protein stability index of 1.96.
With YQSKGYNDDYYEESYFTKRTYGEP [T18K] the protein stability index was 2.65.
YQSKGYNDDYCEESYFTTRTYGEP [Y11C] showed a protein stability index of 2.36.
YQSKGYNDDYREESYFTTRTYGEP [Y11R] showed a protein stability index of 2.66.
Variant YQSKGYNDDYHEESYFTTRTYGEP [Y11H] has a protein stability index of 2.6.
Work on YQSKGYNDDYYEESYRTTRTYGEP [F16R] yielded a protein stability index of 2.69.
Variant YQSKGYNDDYYEESYFTTRTYEEP [G22E] has a protein stability index of 2.76.
With YQSKGYNDDYYEECYFTTRTYGEP [S14C] the protein stability index was 1.77.
For YQSKGANDDYYEESYFTTRTYGEP [Y6A], the protein stability index was 3.26.
YQSKGWNDDYYEESYFTTRTYGEP [Y6W] showed a protein stability index of 1.48.
Work on YQSKGKNDDYYEESYFTTRTYGEP [Y6K] yielded a protein stability index of 3.05.
Variant YQSKGLNDDYYEESYFTTRTYGEP [Y6L] has a protein stability index of 2.24.
YQNKGYNDDYYEESYFTTRTYGEP [S3N] gave a protein stability index of 2.45.
YQSLGYNDDYYEESYFTTRTYGEP [K4L] gave a protein stability index of 2.06.
Variant YQSGGYNDDYYEESYFTTRTYGEP [K4G] has a protein stability index of 2.12.
With YQSKGYNDDIYEESYFTTRTYGEP [Y10I] the protein stability index was 2.52.
RQSKGYNDDYYEESYFTTRTYGEP [Y1R] showed a protein stability index of 3.48.
LQSKGYNDDYYEESYFTTRTYGEP [Y1L] gave a protein stability index of 2.92.
Work on CQSKGYNDDYYEESYFTTRTYGEP [Y1C] yielded a protein stability index of 3.02.
With YQSKLYNDDYYEESYFTTRTYGEP [G5L] the protein stability index was 1.82.
Variant YQSKGYNDDYYEESYFTTRWYGEP [T20W] has a protein stability index of 1.46.
YQSKGYNDDYYEESYFTTRAYGEP [T20A] showed a protein stability index of 2.15.
For YQSKGYNDFYYEESYFTTRTYGEP [D9F], the protein stability index was 2.44.
YQSKGYPDDYYEESYFTTRTYGEP [N7P] showed a protein stability index of 2.17.
In the case of YQSKGYHDDYYEESYFTTRTYGEP [N7H], the protein stability index is reported as 2.18.
Work on YQSKGYNDDYYEESYFTTRTYGEV [P24V] yielded a protein stability index of 1.85.
YQSKGYNDDYYEESYFTTRTYGET [P24T] showed a protein stability index of 1.91.
In the case of YQSKGYNDDYYEYSYFTTRTYGEP [E13Y], the protein stability index is reported as 1.91.
In the case of YQSKGYNDDYYEASYFTTRTYGEP [E13A], the protein stability index is reported as 1.95.
Variant YQSKGYNDDYYEESYFTTRTYGWP [E23W] has a protein stability index of 2.35.
For YQSKGYNDDYYEESYFTTRTYGTP [E23T], the protein stability index was 2.24.
Work on YQSKGYNDDYYEESYFTTRTYGCP [E23C] yielded a protein stability index of 2.12.
YQSKGYNDDYYEESRFTTRTYGEP [Y15R] gave a protein stability index of 2.75.
With YQSKGYNDDYYEESEFTTRTYGEP [Y15E] the protein stability index was 3.41.
Work on YQSKGYNDDYYEESGFTTRTYGEP [Y15G] yielded a protein stability index of 2.96.
Work on YQSKGYNDDYYGESYFTTRTYGEP [E12G] yielded a protein stability index of 1.84.
Variant YQSKGYNDDYYVESYFTTRTYGEP [E12V] has a protein stability index of 1.71.
YKSKGYNDDYYEESYFTTRTYGEP [Q2K] gave a protein stability index of 3.13.
In the case of YGSKGYNDDYYEESYFTTRTYGEP [Q2G], the protein stability index is reported as 2.53.
Work on YYSKGYNDDYYEESYFTTRTYGEP [Q2Y] yielded a protein stability index of 2.01.
With YQSKGYNDDYYEESYFMTRTYGEP [T17M] the protein stability index was 1.71.
With YQSKGYNDDYYEESYFTTMTYGEP [R19M] the protein stability index was 2.35.

Variants of: B2
Assay: as above
Details: c terminus: a fixed tail appended
YVKAKKSIDKDEEFAGSSPQSSKM [S24M] showed a protein stability index of 3.02.
With YVKAKKSIDKDEEFAGSSPQSSKF [S24F] the protein stability index was 2.79.
Work on YVKAKKSIDKDEEFAGSSPQSSKG [S24G] yielded a protein stability index of 2.93.
In the case of YVKAKKSIDKDEEFAGSSPQSSKY [S24Y], the protein stability index is reported as 2.83.
YVKAKKSIDKDEEFAGSSPQSSKA [S24A] showed a protein stability index of 3.29.
Work on YVKAKKSIDKDEEFAGSSPQSSKN [S24N] yielded a protein stability index of 3.61.
With YVKAKKSIDKDEEFAGSSPQSSKC [S24C] the protein stability index was 3.13.
YVKAKKSIDKDEEFAGSSPQSSKP [S24P] gave a protein stability index of 3.02.
With YVKAKKSIDKDEEFAGSSPQSSKD [S24D] the protein stability index was 2.94.
Variant YVKAKKSIDKDEEFAGSSPQSSKV [S24V] has a protein stability index of 2.33.
Variant YVKAKKSIDKDEEFAGSSPQSSKR [S24R] has a protein stability index of 2.37.
YVKAKKSIDKDEEFAGSSPQSSKE [S24E] showed a protein stability index of 3.55.
Work on YVKAKKSIDKDEEFAGSSPQSSKQ [S24Q] yielded a protein stability index of 3.
Work on YVKAKKSIDKDEEFAGSSPQSSKL [S24L] yielded a protein stability index of 2.71.
In the case of YVKAKKSIDKDEEFAGSSPQSSKW [S24W], the protein stability index is reported as 3.03.
In the case of YVKAKKSIDKDEEFAGSSPQSSKH [S24H], the protein stability index is reported as 3.33.
YVKAKKSIDKDEEFAGSSPQSSKT [S24T] showed a protein stability index of 2.85.
In the case of YVKAKKSIDKDEEFAGSSPQSSKI [S24I], the protein stability index is reported as 3.19.
Variant YVKAKKSIDKDEEFAGSSPQSSKK [S24K] has a protein stability index of 2.58.
YVKAKKSIDKDEEFAGSSPQSSDS [K23D] gave a protein stability index of 3.11.
Variant YVKAKKSIDKDEEFAGSSPQSSMS [K23M] has a protein stability index of 3.1.
In the case of YVKAKKSIDKDEEFAGSSPQSSRS [K23R], the protein stability index is reported as 3.4.
In the case of YVKAKKSIDKDEEFAGSSPQSSES [K23E], the protein stability index is reported as 3.55.
With YVKAKKSIDKDEEFAGSSPQSSYS [K23Y] the protein stability index was 2.76.
YVKAKKSIDKDEEFAGSSPQSSIS [K23I] showed a protein stability index of 2.76.
Variant YVKAKKSIDKDEEFAGSSPQSSSS [K23S] has a protein stability index of 3.08.
YVKAKKSIDKDEEFAGSSPQSSHS [K23H] gave a protein stability index of 3.33.
With YVKAKKSIDKDEEFAGSSPQSSGS [K23G] the protein stability index was 3.06.
Variant YVKAKKSIDKDEEFAGSSPQSSCS [K23C] has a protein stability index of 3.5.
Variant YVKAKKSIDKDEEFAGSSPQSSVS [K23V] has a protein stability index of 3.85.
YVKAKKSIDKDEEFAGSSPQSSLS [K23L] gave a protein stability index of 3.
Variant YVKAKKSIDKDEEFAGSSPQSSNS [K23N] has a protein stability index of 3.41.
YVKAKKSIDKDEEFAGSSPQSSWS [K23W] showed a protein stability index of 2.58.
For YVKAKKSIDKDEEFAGSSPQSSPS [K23P], the protein stability index was 3.94.
YVKAKKSIDKDEEFAGSSPQSSFS [K23F] showed a protein stability index of 3.02.
In the case of YVKAKKSIDKDEEFAGSSPQSSQS [K23Q], the protein stability index is reported as 3.32.
Variant YVKAKKSIDKDEEFAGSSPQSSTS [K23T] has a protein stability index of 3.46.
For YVKAKKSIDKDEEFAGSSPQSSAS [K23A], the protein stability index was 3.44.
Variant YVKAKKSIDKDEEFAGSSPQSMKS [S22M] has a protein stability index of 3.06.
With YVKAKKSIDKDEEFAGSSPQSYKS [S22Y] the protein stability index was 2.78.
In the case of YVKAKKSIDKDEEFAGSSPQSVKS [S22V], the protein stability index is reported as 3.36.
Work on YVKAKKSIDKDEEFAGSSPQSTKS [S22T] yielded a protein stability index of 2.87.
For YVKAKKSIDKDEEFAGSSPQSNKS [S22N], the protein stability index was 2.83.
With YVKAKKSIDKDEEFAGSSPQSWKS [S22W] the protein stability index was 2.27.
In the case of YVKAKKSIDKDEEFAGSSPQSRKS [S22R], the protein stability index is reported as 3.59.
Variant YVKAKKSIDKDEEFAGSSPQSPKS [S22P] has a protein stability index of 3.22.
Variant YVKAKKSIDKDEEFAGSSPQSQKS [S22Q] has a protein stability index of 2.6.
